Paper PMC11809415 (2025)

B1: F-tractinopt–mCherry fusion [rat] / F-actin (rabbit skeletal muscle α-actin filaments) [rabbit] (parent complex)
chain 1: APRRSVGELRLLFEARAASAA
chain 2: not shown

Variants of: B1
Test: high-speed cosedimentation assay (SDS-PAGE densitometry); 2 µM F-tractin-mCherry; high-speed sedimentation, 120,000 g; actin 0-40 µM

| Variant | Kd [µM] |
| --- | --- |
| chain 1 R3A | 23 |

Variants of: B1
Test: high-speed cosedimentation assay (SDS-PAGE densitometry); 2 µM F-tractin-mCherry; high-speed sedimentation, 120,000 g; point at the highest actin level (40 µM total, about 39 µM free F-actin); read off a plot

| Variant | response |
| --- | --- |
| chain 1 R3A | ~0.44 fraction of F-tractin bound |

Variants of: B1
Test: high-speed cosedimentation assay (SDS-PAGE densitometry); 2 µM F-tractin-mCherry; high-speed sedimentation, 120,000 g; point at the highest actin level (40 µM total, about 40 µM free F-actin); read off a plot

| Variant | response |
| --- | --- |
| chain 1 F13A | ~0.06 fraction of F-tractin bound |
